Assay results as given in publication PMC4895914 (2014).
Each block holds one binder with its values, some of them ahead of it. Square brackets hold non-standard residues; d marks the D form. Ends that are not written are not given here. * marks the point of attachment. His(π-(CH2)8Ph,τ-CH2CH2CH(OH)CH2OH) = His N(pi)-(CH2)8Ph and N(tau)-CH2CH2CH(OH)CH2OH; FITC = O=C1OC2(c3ccc(O)cc3Oc3cc(O)ccc32)c2ccc(NC(=S)*)cc21; His(π-(CH2)8Ph) = N[C@@H](Cc1cncn1CCCCCCCCc1ccccc1)C(=O)O; pT = C[C@@H](OP(=O)(O)O)[C@H](N)C(=O)O; PEG = not defined here

What was measured:
Test in all cases: fluorescence polarization
[1] = biological target: T1, 2a* (not fully specified; reading uncertain)
T1 chain: {FITC-PEG}-PL[His(π-(CH2)8Ph)]S[pT]

[2] = biological target: T2, 3c* (not fully specified (residue 3); reading uncertain; also: His N(tau)-hydroxyalkyl, not given here)
T2 chain: {FITC-PEG}-PLHS[pT]

[3] = biological target: T3, 3m* (not fully specified; reading uncertain)
T3 chain: {FITC-PEG}-PL[His(π-(CH2)8Ph,τ-CH2CH2CH(OH)CH2OH)]S[pT]

Kd [1]: 400 nM | Kd [2]: 43 nM | Kd [3]: 24 nM
B1: Plk2 PBD PBD (protein)
chain: HLSSPAKNFFKKAAAALFGGKKDKARYIDTHNRVSKEDEDIYKLRHDLKKTSITQQPSKHRTDEELQPPTTTVARSGTPAVENKQQIGDAIRMIVRGTLGSCSSSSECLEDSTMGSVADTVARVLRGCLENMPEADCIPKEQLSTSFQWVTKWVDYSNKYGFGYQLSDHTVGVLFNNGAHMSLLPDKKTVHYYAELGQCSVFPATDAPEQFISQVTVLKYFSHYMEENLMDGGDLPSVTDIRRPRLYLLQWLKSDKALMMLFNDGTFQVNFYHDHTKIIICSQNEEYLLTYINEDRISTTFRLTTLLMSGCSSELKNRMEYALNMLLQRCN

Kd [1]: 306 nM | Kd [2]: 240 nM | Kd [3]: 62 nM
B2: Plk3 PBD PBD (protein)
chain: TPPNPARSLFAKVTKSLFGRKKKSKNHAQERDEVSGLVSGLMRTSVGHQDARPEAPAASGPAPVSLVETAPEDSSPRGTLASSGDGFEEGLTVATVVESALCALRNCIAFMPPAEQNPAPLAQPEPLVWVSKWVDYSNKFGFGYQLSSRRVAVLFNDGTHMALSANRKTVHYNPTSTKHFSFSVGAVPRALQPQLGILRYFASYMEQHLMKGGDLPSVEEVEVPAPPLLLQWVKTDQALLMLFSDGTVQVNFYGDHTKLILSGWEPLLVTFVARNRSACTYLASHLRQLGCSPDLRQRLRYALRLLRDRSPA
